# Literature values as cited in PMC3113340.
# Biological target: IL-1ra (Homo sapiens) (UniProt P18510)
# UniProt P18510, sequence (P18510 26-177): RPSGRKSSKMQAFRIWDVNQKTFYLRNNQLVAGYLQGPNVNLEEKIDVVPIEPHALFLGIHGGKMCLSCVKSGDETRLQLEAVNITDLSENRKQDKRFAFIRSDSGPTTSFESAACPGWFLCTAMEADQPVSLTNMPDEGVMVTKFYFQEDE
substance,measurement,value
soluble IL-1RI ECD (from UniProt P14778),Kd,0.014 nM
